Experimental data taken from patent US20140186363A1 (UNIVERSITY OF ZURICH, published 2014).

Tests used:
[1] = molecular target: T1, MAGEA3 peptide no 1; assay: peptide ELISA (coated 20mer)
T1 construct: also called MAGEA3 aa 1-20
T1 peptide: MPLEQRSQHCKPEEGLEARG
Method: (§1) 20mer peptides spanning the entire MAGEA3 protein with 10 aa overlaps shared by each adjacent peptide (Peptides&Elephants, Nuthetal, Germany) were used to coat Maxisorp ELISA plates (Nunc, Rochester, N.Y.). As control a 20mer peptide representing amino acids 40-21 from the NY-ESO-1 protein was used (rev). The numbering of amino acids of MAGEA3 is based on SEQ ID No:41.
(§2) Human recombinant antibody was used at a concentration of 1 μg/ml. Bound human antibody was detected using horseradish peroxidase-conjugated goat anti-human IgG Fc-gamma specific antibodies (Jackson ImmunoResearch, Europe Ltd., Cambridgeshire, UK).

[2] = molecular target: T2, MAGEA3 peptide no 10; assay: peptide ELISA (coated 20mer)
T2 construct: also called MAGEA3 aa 91-110
T2 peptide: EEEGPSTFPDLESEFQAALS
Method: as §1, §2

[3] = molecular target: T3, MAGEA3 peptide no 12; assay: peptide ELISA (coated 20mer)
T3 construct: also called MAGEA3 aa 111-130
T3 peptide: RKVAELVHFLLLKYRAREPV
Method: as §1, §2

[4] = molecular target: T4, MAGEA3 peptide no 13; assay: peptide ELISA (coated 20mer)
T4 construct: also called MAGEA3 aa 121-140
T4 peptide: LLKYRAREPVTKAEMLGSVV
Method: as §1, §2

[5] = molecular target: T5, MAGEA3 peptide no 14; assay: peptide ELISA (coated 20mer)
T5 construct: also called MAGEA3 aa 131-150
T5 peptide: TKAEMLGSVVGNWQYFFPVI
Method: as §1, §2

[6] = molecular target: T6, MAGEA3 peptide no 18; assay: peptide ELISA (coated 20mer)
T6 construct: also called MAGEA3 aa 171-190
T6 peptide: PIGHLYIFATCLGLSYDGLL
Method: as §1, §2

[7] = molecular target: T7, MAGEA3 peptide no 28; assay: peptide ELISA (coated 20mer)
T7 construct: also called MAGEA3 aa 271-290
T7 peptide: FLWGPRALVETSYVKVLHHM
Method: as §1, §2

[8] = molecular target: T8, MAGEA3 peptide no 29; assay: peptide ELISA (coated 20mer)
T8 construct: also called MAGEA3 aa 281-300
T8 peptide: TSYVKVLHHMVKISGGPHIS
Method: as §1, §2

[9] = molecular target: T9, MAGEA3 (human, UniProt P43357 1-314); assay: ELISA, plate coated with recombinant MAGEA3, serial dilution of antibody
T9 construct: also called recombinant MAGEA3; MAGEA3-protein

[10] = molecular target: T10, MAGEA3 peptide no 5; assay: peptide ELISA (coated 20mer) [Figure 1]
T10 construct: also called MAGEA3 aa 41-60
T10 peptide: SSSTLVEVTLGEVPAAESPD
Method: as §1, §2

[11] = molecular target: T11, MAGEA3 peptide no 6; assay: ELISA on plate-coated 20mer peptide, antibody at 1 µg/ml, anti-human IgG Fc-HRP [Figure 1]
T11 construct: also called MAGEA3 aa 51-70
T11 peptide: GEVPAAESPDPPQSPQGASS
Method: as §1, §2

[12] = molecular target: T9, MAGEA3; assay: ELISA, plate coated with recombinant MAGEA3, serial dilution of antibody [Figure 4]
[13] = molecular target: T11, MAGEA3 peptide no 6; assay: peptide ELISA (coated 20mer) [Figure 1]
Method: as §1, §2

[14] = molecular target: T10, MAGEA3 peptide no 5; assay: ELISA on plate-coated 20mer peptide, antibody at 1 µg/ml, anti-human IgG Fc-HRP [Figure 1]
Method: as §1, §2

[15] = molecular target: T9, MAGEA3; assay: ELISA, plate coated with recombinant MAGEA3, serial dilution of antibody [Figure 4]; remark: listed apart in the source

B1: 32H2 (antibody, V domains shown)
VH: QVQLVESGGGVVQPGRSLRLSCAASGFTFSSNAMHWVRQAPGKGLEWVAVISHDGSNKYYADSVKGRFTISRDNSKNTLYLQMNSLRAEDTAVYYCARDGSGSYFNLDYWGQGTLVTVSS
VL: QSALTQPASVSGSPGQSITISCTGTSSDVGGYNYVSWYQQHPGKAPKLMIYEVSNRPSGVSNRFSGSKSGNTASLTISGLQAEDEADYYCSSYTSSSTLVFGTGTKVTVL
notes: Patient-derived human antibody made recombinantly; also called human monoclonal antibody 32H2
Question: Which results are given for B1?
Answer: binding result [1]: no binding (tested: 1 µg/ml); binding result [2]: no binding (tested: 1 µg/ml); binding result [3]: no binding (tested: 1 µg/ml); binding result [4]: no binding (tested: 1 µg/ml); binding result [5]: no binding (tested: 1 µg/ml); binding result [6]: no binding (tested: 1 µg/ml); binding result [7]: no binding (tested: 1 µg/ml); binding result [8]: no binding (tested: 1 µg/ml); EC50 [9]: 0.033 nM; EC50 (read off the curve) [9]: ~30 pM

B2: 34G9 (antibody, V domains shown)
VH: EVQLEESGGDLVQPGGSLRLSCAASGFTFSHYWMHWVRQAPGKGLVWVSRINSDGSSTSYADSVKGRFTISRDNAKNTLYLQMNSLRAEDTAVYYCARIGSDGYNYDFWGQGTLVTVSS
VL: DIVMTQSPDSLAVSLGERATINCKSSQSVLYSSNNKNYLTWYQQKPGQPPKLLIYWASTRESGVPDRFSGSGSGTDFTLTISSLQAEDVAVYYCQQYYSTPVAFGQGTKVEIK
notes: Patient-derived human antibody made recombinantly; also called human monoclonal antibody 34G9
Question: Does B2 bind [10]?
Answer: no binding (tested: 1 µg/ml)

Question: Does B2 bind [11]?
Answer: binds

Question: What about the EC50 [12] of the same binder?
Answer: 0.045 nM

Question: What about the “EC50 (read off the curve)” value [12] of the same binder?
Answer: ~40 pM

B3: 102G10 (antibody, V domains shown)
VH: EVQLVESGGGLVKPGGSLRLSCAASGFTFSGNSMNWVRQAPGKGLEWVSSISSSSGYIYYADSVKGRFTVSRDNAKNSLYLQMNSLRAEDTAVYYCATWPVTTARVGYWGQGTLVTVSS
VL: QSVLTQPPSASGTPGQRVTISCSGSSSNIGSNYVYWHQQLPGTAPKLLIYRHDQRPSGVPDRFSGSKSGTSASLAISGLRSEDEADYYCAAWDDSLSAWVFGGGTKLTVL
notes: Patient-derived human antibody made recombinantly; also called human monoclonal antibody 102G10
Question: Does B3 bind [13]?
Answer: no binding (tested: 1 µg/ml)

Question: Does B3 bind [14]?
Answer: binds

Question: And the EC50 [15]?
Answer: 0.034 nM
